{"source": "the DeepSol protein solubility set", "data": [{"test": "soluble on expression in E. coli; label from the status in PepcDB or PDB records", "values": [{"sequence": "MRLLYVIKKENPMDQMPNCPKCQSEYVYHDSINFVCPDCGNEWDNNEIQESDDDQLIVKDSNGNLLAEGDNVLLIKDLKLKGSSEVLKKGTKFKNIRLVNGDHNVDCGKIMLKSEFLKKALEHHHHHH", "soluble on expression in E. coli": "soluble"}, {"sequence": "MSLSTLRIAMTAADIPLTLGQPDQGYEGNRFTGIPLYDALVEWDLSQGEKPSGLVPGLATEWHIDPQNTSRWIFTLRPGVKFHDGTEVNADAIVWNVDKVLNKAAPQYAPGQIGNTLSRMPTLTGAEKIDDHTVALTTSEPDALLPYNITNLFIVSPTAWQKQYDAVPASVGDSAARSKQAWTAFAAHAVGSGPFKLEKLVPRQQLILDKNPDYWNKDRIPRVDKVVLIPLPEANARTAALLSKQVDWIEAPAPDAIDQIKSQGFHLYANTQPHLWPWQFSFEKGSPWQDIRVRKAANLCLNRAELKSYLGGYMTEATGVYEADSPWHGKPTFQIKYDPDVARQLMTEAGYSASKPLHVTVATSASGSGQMQPLPMNEYIQQSLKSCFFNVDIKVVEWNTLFTNWRLGARDPSAKGIDAINVSAAVNDPYFGLIRFSTAKAFPPVATNWGYFSTPETEKLAAAVKHAFTPAEMNKAAGELHAALVDQVPFLFVAHDVGPRAISPAVTGVVQPQSWFIDLSLVSKKEGHHHHHH", "soluble on expression in E. coli": "soluble"}, {"sequence": "MGRLGWVDPESFMQRNHELMDAYSAGKLAMEEFMAFSLEPMAGRTPEEVDHLVGPWVEDVIEPIIYSDACKCIAQHRAKGDRILVISASGVHLVKPIAERLGIDEVLGIELDVQHGVYSGATVGVLTYREGKITRLMEWLDAEGENLEGASFYSDSRNDLPLLLKVDHPNVVNPDPVLLEHAQQAGWPVHTWV", "soluble on expression in E. coli": "not soluble"}, {"sequence": "MSSVKDTMTTQVATVSPNQTIQEAASLMKQHNVGAIPVVEQGVLKGMLTDRDIALRTTAQGRDGQTPVSEVMSTELVSGNPNMSLEDASQLMAQHQIRRLPIVDQNNLVGIVALGDLAVNQMSNESAGSALTNISHQNIH", "soluble on expression in E. coli": "not soluble"}, {"sequence": "GAMEAEKEFITMLKENQVDSTWSFSRIISELGTRDPRYWMVDDDPLWKKEMFEKYLSNR", "soluble on expression in E. coli": "soluble"}, {"sequence": "MGSDKIHHHHHHMKLAYFVIPHIGGTYSVFKHLRKGLAAYDIDVRWLGVCKETYGLPLDLQGETAFGQLLRMPVNLSERDCAARMAAAIENGGFDGVIVNVLGDQLQTNIARYLPEGILRILVVHNISPGTYAAARSVRDYAHVTIGVSERCRADLVARNGFPKDRTYAIPNAVDSDAFRSQAVRRVNRGPELKVLFVGRIEDASKGVMWLREILDGSPEAVRLTIVGDGPDMGKLRRRLASHDDRVSYAGSVQLSDIPVIMASHDVLIMPSRFEGLGMTMIEAMAGGCVPVVSHIRGVTDTIVEPGRNGFLFPIGNYTAAANAIGRLHADRDLLERMSIAGKEMVLNRFSIERMAARYNEVIAMTLNDRPGLSTVLRMEDWSIPAGLRPGLRTYLPLPLKNWLRVVRERL", "soluble on expression in E. coli": "not soluble"}, {"sequence": "TEVELAYLVSESQLIGITGSNGKTTTTTMIAEVLNAGGQRGLLAGNIGFPASEVVQAANDKDTLVMELSSFQLMGVKEFRPHIAVITNLMPTHLDYHGSFEDYVAAKWNIQNQMSSSDFLVLNFNQGISKELAKTTKATIVPFSTTEKVDGAYVQDKQLFYKGENIMSVDDIGVPGSHNVENALATIAVAKLAGISNQVIRETLSNFGG", "soluble on expression in E. coli": "not soluble"}, {"sequence": "QVQLVESGGNLVQPGGSLRLSCAASGFTFGSFSMSWVRQAPGGGLEWVAGLSARSSLTHYADSVKGRFTISRDNAKNSVYLQMNSLRVEDTAVYYCARRSYDSSGYWGHFYSYMDVWGQGTLVTVS", "soluble on expression in E. coli": "soluble"}, {"sequence": "MAGGLIRGKLIAIIGDEDTVTGFLLGGIGELNKNRKPNFLVVEKETSVTEIEETFRSFLNRDDIGIILINQFIAEMIRHAIDAHTISIPAVLEIPSKEHPYDATKDSILRRAKGMFTVDDLR", "soluble on expression in E. coli": "soluble"}, {"sequence": "MATSKLQALWNHPAGPKTIHFWAPTFKWGISIANIADFQKPPENISYLQQIAVTCTGMIWCRCSTIITPKNWNLFSVNVAMAATGIYQLTRKIKYDYVSEAEAAVEIEG", "soluble on expression in E. coli": "not soluble"}, {"sequence": "GQSLRSFQKQNEDNDKRQQILRSINVNVSSSEAETKYNELIKEAFLVNENGEKVEGDAFATDVVKAATEHQYPVFVANVDGQPKYIMALHGAGLWGPLWGYISVDSDKNTIYGADFSHQGETPGLGAEISKPVFSNEFKGKKIFMSGEFKSVAVVKPGKSVAGQDYVDGISGGTITSKGVDEMLFNSLSGYVKFLTSQN", "soluble on expression in E. coli": "soluble"}, {"sequence": "MGSDKIHHHHHHMTPIPKTSVPKTSVPTTPEPIRTNIPTALGKCLSLCLCLLLPLTQAWAETPANADVTASDNAIIAGHEFSHDSSEFKTPRRYMVSLPEGYHGNTRHYPVLYVVDADFQFQHVSALALHLARMGKIAPMIVVGIANQGQSDYLYTTTWKSDEGEAFGGADTFYRYLAKELIPTIDKQFRTNPHKALAGYSLGGLFTLYAMTQANSPFDAYLAMSPSVWYDKMHYIELLKQRLQKSPIEAPLFLTLANEQEMGVDELVTALKGYDAQKIHWQFKQYPSENHFTTALPALNDGLLFLSPDYGLDGSDMLALGDYRAVLDYFAKRKANWAGFHIEWLQAYQFGKYLFWSKQLDKLDGILAAVKQEFPDSLTIVTVQVAKGFNVKGDGARAKALLDSVAKEGEASPYWHREMSLYYQSQGDEANAQRHQQKALALATQYRLNTWELWELQ", "soluble on expression in E. coli": "not soluble"}, {"sequence": "STRHPENYQWENWSLENVATILAHRFPNSYIWVIKCSRMHLHKFSCYDNFVKSNMFGAPEHNTDFGAFKHLYMLLVNAFNLSQNSLSKKSLNVWNKDSIASNCRSSPSHTTNGCQGEKVRTCEKSDESAMSFYPPSLNDASFTLIGFSKGCVVLNQLLFELKEAKKDKNIDAFIKSIRTMYWLDGGHSGGSNTWVTYPEVLKEFAQTGIIVHTHVTPYQVRDPMRSWIGKEHKKFVQILGDLGMQVTSQIHFTKEAPSIENHFRVHEVF", "soluble on expression in E. coli": "soluble"}, {"sequence": "MKRAFIMVLDSFGIGATEDAERFGDVGADTLGHIAEACAKGEADNGRKGPLNLPNLTRLGLAKAHEGSTGFIPAGMDGNAEVIGAYAWAHEMSSGKDTPSGHWEIAGVPVLFEWGYFSDHENSFPQELLDKLVERANLPGYLGNCHSSGTVILDQLGEEHMKTGKPIFYTSADSVFQIACHEETFGLDKLYELCEIAREELTNGGYNIGRVIARPFIGDKAGNFQRTGNRHDLAVEPPAPTVLQKLVDEKHGQVVSVGKIADIYANCGITKKVKATGLDALFDATIKEMKEAGDNTIVFTNFVDFDSSWGHRRDVAGYAAGLELFDRRLPELMSLLRDDDILILTADHGCDPTWTGTDHTREHIPVLVYGPKVKPGSLGHRETFADIGQTLAKYFGTSDMEYGKAMF", "soluble on expression in E. coli": "not soluble"}, {"sequence": "MGSDKIHHHHHHMNVLALDTSQRIRIGLRKGEDLFEISYTGEKKHAEILPVVVKKLLDELDLKVKDLDVVGVGIGPGGLTGLRVGIATVVGLVSPYDIPVAPLNSFEMTAKSCPADGVVLVARRARKGYHYCAVYLKDKGLNPLKEPSVVSDEELEEITKEFSPKIVLKDDLLISPAVLVEESERLFREKKTIHYYEIEPLYLQKSIAELNWEKKKRG", "soluble on expression in E. coli": "soluble"}, {"sequence": "MGSDKIHHHHHHMPNMGIEKLYVSQQLTDSAAGMTFTKPQYYKYVQELSLKPKVNSASAYAENRKVDQDTQFDSCDVSINLFQMTSSQRAFMLGQSLAGGGGAIGALNDKAPWITLLYKAPIKVDDTIYYRYGVIYKTQFQPPDDDYKTTEGKPDFSQVPKISGSAQPTEWSFKDGKLEKHPWEWHVDTCDPNCPENIDDTWFNSVSIPSLVTYGSLSLSASSPKDGATGISLDTKPSLTFNNPIMNATSILLYNVSDGATVNTTTSSDSSGKIITITPSTNLVANKNYVLVVQDVTDLYGQTLDTQLIRFTTATAAS", "soluble on expression in E. coli": "not soluble"}, {"sequence": "MTSIALQLLLLLQPYTLTIRRSKMSTKLKQNLEGSFFVVSFSACSPGSKCEISCNITTFRFILYNIAPLFIARKQRQRIGQFAVVRRVRDRKTGEKYAAKFIKKRRYATSRRGVTRQNIEREVRVLQKIRGNSNVVELHAVYETASDVIIVLELVSGGELFDHVCAKECLDEVEAAAFIKQILLAVRHLHSLHIVHLDIKPENVMLKQRGDSQIKIIDFGLSREIEPGAVVKDMVGTPEFVAPEVVNYEALSPATDMWAVGVVTYILLSGGSPFLGDNRDETFSNITRVRYHFSDRYFKNTSKHAKDFIYRLFVRDVDQRATVEECLQHPWIRGPEGNAIDIRKASCITISHIQSFKTRQRWKRCVELVMVLLKASKSSRRIGDGRFDEEDMVASCTLICAEEGNLRALHKLSALHKLLPNATRKSLKSSFSEPNGATAMHCAAKYGHAEVFNYFHMKGGNICARDDNGDTPLHVACRFAQHTVAGYVANEKIDVDSINKTGETALHCAVESADTRVVRLLLQLRPRLDLPNAREETPLHVAAARGHVDCVQALLDANSPIDAVEQDGKTALIIALENGNVDIASILITNGCDINHADHHGDTALHIASKHGLLQAVQTLCHCAVTVDSVNANKKTALHLAAHYGHVDIIRVLLLARADVTLRGDDGLTAELVAVAAERLEAHSLLKMVKSQEIREEYISQLYPLDTSLRRIKLKLLGHSQSGKTRLVQTLHSSRGISSFLESVTRRISDHYSPSSSMKDDGIHSTNGSFVSESNNNSSFDLAAAAGSKYAPPHSQYTRGIDVQTVNINGCGEFSVWEFGGYEPMHTCYDHFVGNADCIHLILYRTSDPTEVQYKQILYWMNFLKGRVTPFEPIGHCGFSSRRSKVIIVGTHATSSLFPQMNQEGEYVSSDIEAMLNTVRLRFETHFDMDHRLILLDATNPSCIGMKTLKMELAKCRTNILAKLLKPLAILDTVVNHLNLVRKKHANFPVITWPDFIQLVRNEINPLTGDAHCRQIVQQLQLIGELVYLRNDLCDADYVVLNAEWFGTHILGQLLSAEFLSKASPNGSYHTSSLAKIFPEIPEQSDLMTILEVLQLCAPDARTGAHEFPVFIQTEAPDSIWRPYSLKEKERDTVYGGVRILPMRGMERSLHSTFPRIQVALRRSINDYQPAKDTQLHQWSECSKLVSQDREAVIRMVGDAVEIRARGPSESATSMFYFMEDLINLVEHAAAEVGPGISLERHFISPKHLKEHREHPALFPPESMMEMQQRESLSVKGTQDEEELFTDVVCFGSRDVARHLTLGIDVGVADLQMASRCELACLLDPPHAMGRDWSILAVKLQLTDQVPDVDSTGQSLSRTDQLLNEWAIHHPEQASVGNLCRILVELGRCDARDALYRTVPLYVFAPLEDQFLLETNDSGVVSSCHSSSEHNPINI", "soluble on expression in E. coli": "not soluble"}, {"sequence": "MGSDKIHHHHHHMRKMKNNDKSVITVDLNDPVKSLEYLEEAFQIGTFILKNSPVNFKRLAKVLSDLDTFYNLDFKTKIDISGQISGGGATRGYFPLGVESGLVDVFEKKESYSFGWPDNEIPDSDASNLSLVAPNIYPDHGYINPDDINGLIKDFANAAKKLSRLIEIILFNGKTVLPIDESSDFQSLLRSFRYYKKTEFDPPNTGANSLHTDWNLITLVYADADGYQYRDNEGNFQNIIPEMEDCLIVNFGDFLSAWTGGKIVSPWHQVVEAKKKDVRNSLVFFYYPAASSSAVKNPIYNQGEPLSLFVDQSDPLNRLWDFSKIETMNEMYAGKWKQVSRK", "soluble on expression in E. coli": "not soluble"}, {"sequence": "MEKIIEVNSVSKTFKHKKAVNNVSFHVNKGEIVALLGPNGAGKTTTMSMMLGLKDPTEGTVSIFGKNPKHRDVRNSLGAMLQEVSVIDSITVEEAIELFRSYYTNPVAKETLLQLSNLELERKQRCEKLSGGQKRRLNFALALAGNPDLLFLDEPTVGMDITSRRTFWETIRKLVSEGKTIILTTHYLEEADALADRILLFVNGKIIADGTPDEMKATISRKTISFYSKESIPAKLLKELPNVTEVQAKEGHFTLTTEDTDATLKAIYQKNLPVTDVSVERGSLDEAFEQFVANQKEEIA", "soluble on expression in E. coli": "not soluble"}]}]}
